Patent US11021533 (dated 2021)

Molecular target: ZIKV E protein ectodomain (UniProt A0A024B7W1 291-745)
Assay: ELISA

ZIKV E protein ectodomain, sequence (A0A024B7W1 291-745): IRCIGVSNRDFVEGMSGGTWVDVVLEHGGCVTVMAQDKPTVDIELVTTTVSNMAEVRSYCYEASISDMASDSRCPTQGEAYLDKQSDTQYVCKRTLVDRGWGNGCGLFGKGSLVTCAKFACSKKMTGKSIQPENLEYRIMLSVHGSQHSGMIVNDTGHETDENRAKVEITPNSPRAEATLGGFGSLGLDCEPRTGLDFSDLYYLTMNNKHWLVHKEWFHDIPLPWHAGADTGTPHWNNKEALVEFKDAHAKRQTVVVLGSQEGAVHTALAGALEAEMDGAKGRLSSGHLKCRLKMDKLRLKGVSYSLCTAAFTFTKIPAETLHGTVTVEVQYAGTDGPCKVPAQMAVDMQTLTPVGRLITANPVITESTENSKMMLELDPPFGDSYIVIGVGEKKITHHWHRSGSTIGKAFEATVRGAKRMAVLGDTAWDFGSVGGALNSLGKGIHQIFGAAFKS

| Binder | EC50 |
| --- | --- |
| ZIKV-204 (antibody, V domains shown) VH: QVTLRESGPALLKPTQTLTLTCTFSGFSLSTNETCVSWIRQPPGKALEWLALIDWDDDQYSSTSLAARLTVSKDTSKNQVVLTMTNVAPVDTATYYCALTRPTLTAQNGDKYYNYYYGMDVWGQGTLVTVSS VL: EIVLTQSPGTLSLSPGERATLSCRASQSVSSMYLAWYQQKRGQPPRLLIYGTFNRATGIPDRFSGSGSGTDFTLTISRLEPEDFAVYYCQQYGSSSFTFGGGTKVEIK | 0.048 µg/mL |
| ZIKV-88 (antibody, V domains shown) VH: QVQLLESGGGVVQPGRSLRLSCVASGLTFSTSAMHWVRQAPGKGLEWVAVISYDGSYKFYADSVRDQFTISRDNSKTTLYLQMDGLTPEDTAVYYCARGYNDDSSGSYWYFDLWGRGTLVTVSS VL: QSVLTQPPSVSAAPGQKVTMSCSGSSSNIGSNFVSWYQQLPGTAPKVLIFDNNQRPSGIPDRFSGSKSGTSATLAITGLQPGDEAVYHCGTWDSSLTFAVFGGGTKLTVL | 0.07 µg/mL |
| ZIKV-19 (antibody, V domains shown) VH: QVQLVQSGPEVKKPGSSVKVSCKASGVSFNTYEISWVRQAPGQGLEWMGRIIPIFATPTYALKFQGRVTITTDESTTTGYMELSSLRSEDTAVYYCAGRPYGPGSWLPLDVWGQGTLVTVSS VL: DIVMTQSPSSLSASVGDRVTITCRASQGISSYLAWYQQKPGKLPKLLIYAASTLQSGVPSRFSGSGSGTDFTLTISSLQPEDVAAYYCQKYDSAPFTFGPGTKVDLK | 0.165 µg/mL |
| ZIKV-195 (antibody, V domains shown) VH: QVQVVESGGGVVQPGRSLRLSCAASGFTFSSSAMHWVRQAPGKGLEWVAVISYDGSNKYYGDSVKGRFTISRDNSKNTLYLQMHSLRAEDTAVYYCAKDRDAYNTVGYFAYYYGMDVWGQGTLVTVSS VL: QSVLTQPPSVSEAPRQRVTISCSGSSSNIGNNAVNWYQQLPGKAPKLLIYYDDLLPSGVSDRFSGSKSGTSASLAISGLQSEDEADYYCAAWDDSLTRYVFGTGTKVTVL | 0.695 µg/mL |
| ZIKV-190 (antibody, V domains shown) VH: EVQLVESGGGLIQPGGSLRLSCAASGFTFSSYAMSWVRQAPGKGLEWVSAISGSGGSTYYADSVKGRFTISRDNSKNTLSLQMNSLRAEDTAVYYCARAFYYDFWTFDYWGQGTLVTVSS VL: QSALTQPRSVSGSPGQSVTISCTGTSSDVGGYNYVSWYQQHPGKAPKLMIYAVTKRPSGVPDRFSGSKSGNTASLTISGLQAEDEADYYCCSYAGSYTYVVFGGGTKLTVL | 0.082 µg/mL |
